1 molecule from paper PMC4720891 can be followed below.

The experiment has as its target HA-Mdm2 (human) (UniProt Q00987).

Sequence of HA-Mdm2 (human) (Q00987 whole entry): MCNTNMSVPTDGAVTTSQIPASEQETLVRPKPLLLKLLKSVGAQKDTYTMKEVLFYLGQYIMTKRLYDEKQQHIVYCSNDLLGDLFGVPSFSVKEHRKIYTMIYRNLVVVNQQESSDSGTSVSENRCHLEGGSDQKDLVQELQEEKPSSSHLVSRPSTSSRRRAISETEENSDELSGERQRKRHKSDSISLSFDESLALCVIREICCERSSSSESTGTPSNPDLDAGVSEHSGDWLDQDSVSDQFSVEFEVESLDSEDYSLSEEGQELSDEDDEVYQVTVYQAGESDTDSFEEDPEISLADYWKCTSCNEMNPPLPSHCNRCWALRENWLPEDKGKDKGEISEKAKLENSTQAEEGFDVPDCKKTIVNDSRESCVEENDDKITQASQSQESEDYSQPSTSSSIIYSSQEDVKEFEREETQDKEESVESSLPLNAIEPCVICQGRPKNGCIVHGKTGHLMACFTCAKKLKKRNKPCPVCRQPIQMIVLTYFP

B1: FLAG-MdmX (natural protein)
chain: MTSFSTSAQCSTSDSACRISPGQINQVRPKLPLLKILHAAGAQGEMFTVKEVMHYLGQYIMVKQLYDQQEQHMVYCGGDLLGELLGRQSFSVKDPSPLYDMLRKNLVTLATATTDAAQTLALAQDHSMDIPSQDQLKQSAEESSTSRKRTTEDDIPTLPTSEHKCIHSREDEDLIENLAQDETSRLDLGFEEWDVAGLPWWFLGNLRSNYTPRSNGSTDLQTNQDVGTAIVSDTTDDLWFLNESVSEQLGVGIKVEAADTEQTSEEVGKVSDKKVIEVGKNDDLEDSKSLSDDTDVEVTSEDEWQCTECKKFNSPSKRYCFRCWALRKDWYSDCSKLTHSLSTSDITAIPEKENEGNDVPDCRRTISAPVVRPKDAYIKKENSKLFDPCNSVEFLDLAHSSESQETISSMGEQLDNLSEQRTDTENMEDCQNLLKPCSLCEKRPRDGNIIHGRTGHLVTCFHCARRLKKAGASCPICKKEIQLVIKVFIA
Turning to B1, the FRET (HTRF) signal of MdmX-stimulated Mdm2 autoubiquitination in vitro, against the baseline without MdmX; rises with MdmX concentration and with reaction time is 8 fold.
